Measured values as given in patent publication US20200282012A1 (published 2020).

Tests used:
[1] = target: T1, human complement component C3 (human, UniProt P01024 23-1663); assay: cell-based or functional assay
[2] = target: T1, human complement component C3; assay: cell-based or functional assay; remark: listed apart in the source

B1: (CA28-AEEAc)8-PEG40k (peptide)
peptide: ICVWQDWGAHRCTK
modifications: N-terminal acetyl; 1-methyl-tryptophan at position 4; disulfide Cys2-Cys12; AEEAc spacer between Thr13 and Lys; Lys side chain coupled to one arm of an eight-arm 40 kD PEG (SUNBRIGHT HGEO-400GS); C-terminal amide
- IC50 as a function of CA28 concentration, classical complement inhibition assay (C3b deposition ELISA, human plasma) [1]: 1930 nM

B2: CA28-2GS-BF (peptide)
peptide: ICVWQDWGAHRCTK
modifications: N-terminal acetyl; 1-methyl-tryptophan at position 4; disulfide Cys2-Cys12; AEEAc spacer between Thr13 and Lys; Lys side chain coupled to one end of a bifunctional linear 40 kD PEG of the GS type (glutaryl; amide and ester linkage); C-terminal amide
- % Parent, Q1 (Type III cells with C3d deposition), modified Ham's assay, CA28-2GS-BF 50 ug/ml [2]: 0.01%
- % Parent, Q2 (Type I and II cells with C3d deposition), modified Ham's assay, CA28-2GS-BF 50 ug/ml [2]: 0.01%
- % Parent, Q3 (Type III cells without significant C3d deposition), modified Ham's assay, CA28-2GS-BF 50 ug/ml [2]: 61.5%
- % Parent, Q4 (Type I and II cells without significant C3d deposition), modified Ham's assay, CA28-2GS-BF 50 ug/ml [2]: 38.5%
